The text below walks through data of patent US20190263889A1.

Test [1] has as its target CTLA-4Fc mutant protein M8 (human (murine residues substituted)). In words: ELISA; binder 10 ng/ml on coated target.
In test [2] the target is CTLA-4Fc mutant protein M3 (human (murine residues substituted)). Put plainly: ELISA; binder 10 ng/ml on coated target.
The target of test [3] is CTLA-4Fc mutant protein M9 (human (murine residues substituted)). Put plainly: ELISA; binder 10 ng/ml on coated target.
The target of test [4] is CTLA-4Fc mutant protein M2 (human (murine residues substituted)). In words: ELISA; binder 10 ng/ml on coated target.
CTLA-4Fc mutant protein M2 (human (murine residues substituted)), sequence (chain, as listed by the source mutant): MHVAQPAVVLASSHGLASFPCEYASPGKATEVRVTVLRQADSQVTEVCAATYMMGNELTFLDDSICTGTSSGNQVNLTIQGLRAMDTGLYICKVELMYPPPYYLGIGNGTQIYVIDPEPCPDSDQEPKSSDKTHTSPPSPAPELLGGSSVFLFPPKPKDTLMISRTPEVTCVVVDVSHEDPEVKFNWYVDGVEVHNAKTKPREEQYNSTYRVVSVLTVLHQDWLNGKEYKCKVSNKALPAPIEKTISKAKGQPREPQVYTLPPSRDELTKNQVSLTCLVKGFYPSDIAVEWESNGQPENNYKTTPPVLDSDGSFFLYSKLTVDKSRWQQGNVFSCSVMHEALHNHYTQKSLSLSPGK
Test [5] deals with CTLA-4Fc mutant protein M7 (human (murine residues substituted)). Put plainly: ELISA; binder 10 ng/ml on coated target.
CTLA-4Fc mutant protein M7 (human (murine residues substituted)), sequence (chain, as listed by the source mutant): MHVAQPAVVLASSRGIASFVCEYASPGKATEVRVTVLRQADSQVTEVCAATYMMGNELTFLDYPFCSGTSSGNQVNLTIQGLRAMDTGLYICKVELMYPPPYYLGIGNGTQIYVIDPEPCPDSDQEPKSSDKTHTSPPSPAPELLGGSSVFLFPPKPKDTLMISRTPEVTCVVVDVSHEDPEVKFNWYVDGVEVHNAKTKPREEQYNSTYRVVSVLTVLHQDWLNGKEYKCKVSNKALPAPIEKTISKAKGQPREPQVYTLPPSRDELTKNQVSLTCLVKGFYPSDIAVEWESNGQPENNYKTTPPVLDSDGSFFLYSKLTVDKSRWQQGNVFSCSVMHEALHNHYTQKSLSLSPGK
Test [6] concerns the target CTLA-4Fc mutant protein M4 (human (murine residues substituted)). Put plainly: ELISA; binder 100 ng/ml on coated target.
Test [7] deals with CTLA-4Fc mutant protein M8 (human (murine residues substituted)). In words: ELISA; binder 100 ng/ml on coated target.
CTLA-4Fc mutant protein M8 (human (murine residues substituted)), sequence (chain, as listed by the source mutant): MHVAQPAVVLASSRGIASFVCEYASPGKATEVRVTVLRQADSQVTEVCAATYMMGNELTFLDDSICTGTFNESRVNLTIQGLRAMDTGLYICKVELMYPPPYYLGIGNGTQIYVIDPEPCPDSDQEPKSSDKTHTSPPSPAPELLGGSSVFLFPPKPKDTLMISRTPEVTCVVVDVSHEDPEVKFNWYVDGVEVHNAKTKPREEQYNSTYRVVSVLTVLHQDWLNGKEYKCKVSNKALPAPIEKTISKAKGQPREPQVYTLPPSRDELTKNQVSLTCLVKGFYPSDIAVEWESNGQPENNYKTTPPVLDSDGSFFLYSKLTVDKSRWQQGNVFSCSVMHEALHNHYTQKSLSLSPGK
Test [8] concerns the target CTLA-4Fc mutant protein M3 (human (murine residues substituted)). In words: ELISA; binder 100 ng/ml on coated target.
Test [9] has as its target CTLA-4Fc mutant protein M9 (human (murine residues substituted)). Put plainly: ELISA; binder 100 ng/ml on coated target.
The target in test [10] is CTLA-4Fc mutant protein M1 (human (murine residues substituted)). In words: ELISA; binder 100 ng/ml on coated target.
CTLA-4Fc mutant protein M1 (human (murine residues substituted)), sequence (chain, as listed by the source mutant): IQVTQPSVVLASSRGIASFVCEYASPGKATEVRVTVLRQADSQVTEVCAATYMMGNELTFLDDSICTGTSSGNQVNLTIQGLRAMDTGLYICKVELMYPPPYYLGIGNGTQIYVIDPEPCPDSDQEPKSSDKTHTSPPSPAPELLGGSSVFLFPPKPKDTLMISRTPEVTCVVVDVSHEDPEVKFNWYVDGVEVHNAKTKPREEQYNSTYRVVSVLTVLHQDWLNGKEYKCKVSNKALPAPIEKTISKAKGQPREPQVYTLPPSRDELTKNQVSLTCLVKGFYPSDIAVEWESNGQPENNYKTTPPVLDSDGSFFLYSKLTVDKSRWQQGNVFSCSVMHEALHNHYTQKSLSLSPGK
In test [11] the target is mouse CTLA-4-Fc (mouse) (UniProt P09793). Put plainly: ELISA; binder 100 ng/ml on coated target.
mouse CTLA-4-Fc (mouse), sequence (P09793 36-161 limits assumed): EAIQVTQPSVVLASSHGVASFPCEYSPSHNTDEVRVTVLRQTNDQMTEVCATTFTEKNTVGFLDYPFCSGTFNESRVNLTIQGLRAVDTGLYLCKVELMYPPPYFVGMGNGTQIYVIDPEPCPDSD
The target in test [12] is CTLA-4Fc mutant protein M10 (human (murine residues substituted)). Put plainly: ELISA; binder 100 ng/ml on coated target.
CTLA-4Fc mutant protein M10 (human (murine residues substituted)), sequence (chain, as listed by the source mutant): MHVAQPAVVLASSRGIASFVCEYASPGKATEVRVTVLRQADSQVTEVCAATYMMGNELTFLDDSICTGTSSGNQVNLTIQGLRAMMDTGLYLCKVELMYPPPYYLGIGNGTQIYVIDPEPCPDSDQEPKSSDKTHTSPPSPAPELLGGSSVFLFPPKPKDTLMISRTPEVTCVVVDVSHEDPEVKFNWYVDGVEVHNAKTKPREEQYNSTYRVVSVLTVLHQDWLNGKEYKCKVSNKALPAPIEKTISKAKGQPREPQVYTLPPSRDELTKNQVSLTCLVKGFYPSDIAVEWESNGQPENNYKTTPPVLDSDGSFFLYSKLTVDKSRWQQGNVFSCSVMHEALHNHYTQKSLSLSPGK
Test [13] addresses CTLA-4Fc mutant protein M6 (human (murine residues substituted)). Put plainly: ELISA; binder 100 ng/ml on coated target.
Test [14] has as its target CTLA-4Fc mutant protein M2 (human (murine residues substituted)). In words: ELISA; binder 100 ng/ml on coated target.
Test [15] deals with CTLA-4Fc mutant protein M5 (human (murine residues substituted)). Put plainly: ELISA; binder 100 ng/ml on coated target.
CTLA-4Fc mutant protein M5 (human (murine residues substituted)), sequence (chain, as listed by the source mutant): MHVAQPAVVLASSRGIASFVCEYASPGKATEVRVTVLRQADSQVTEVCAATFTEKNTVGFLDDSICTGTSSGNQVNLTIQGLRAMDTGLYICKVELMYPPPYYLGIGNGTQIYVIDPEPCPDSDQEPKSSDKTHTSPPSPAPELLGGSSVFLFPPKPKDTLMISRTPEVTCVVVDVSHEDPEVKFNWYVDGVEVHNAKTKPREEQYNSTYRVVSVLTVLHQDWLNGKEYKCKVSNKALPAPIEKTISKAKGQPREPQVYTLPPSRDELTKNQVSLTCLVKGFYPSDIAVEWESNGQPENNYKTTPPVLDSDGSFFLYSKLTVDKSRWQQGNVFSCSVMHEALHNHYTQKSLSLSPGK
In test [16] the target is CTLA-4Fc mutant protein M11 (human (murine residues substituted)). Put plainly: ELISA; binder 100 ng/ml on coated target.
CTLA-4Fc mutant protein M11 (human (murine residues substituted)), sequence (chain, as listed by the source mutant): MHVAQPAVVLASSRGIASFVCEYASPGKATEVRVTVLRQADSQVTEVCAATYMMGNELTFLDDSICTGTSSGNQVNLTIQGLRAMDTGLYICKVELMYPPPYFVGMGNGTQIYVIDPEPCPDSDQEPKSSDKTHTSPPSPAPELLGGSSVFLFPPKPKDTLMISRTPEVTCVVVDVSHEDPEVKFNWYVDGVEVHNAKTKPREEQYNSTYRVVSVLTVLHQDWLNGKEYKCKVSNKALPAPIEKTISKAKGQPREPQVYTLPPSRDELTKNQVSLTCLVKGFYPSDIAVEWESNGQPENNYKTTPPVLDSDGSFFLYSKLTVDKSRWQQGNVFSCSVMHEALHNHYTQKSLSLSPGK
For test [17], the target named is wild type human CTLA-4Fc fusion protein (abatacept) (human). Put plainly: ELISA; binder 100 ng/ml on coated target.
wild type human CTLA-4Fc fusion protein (abatacept) (human), sequence (chain, as listed by the source limits assumed): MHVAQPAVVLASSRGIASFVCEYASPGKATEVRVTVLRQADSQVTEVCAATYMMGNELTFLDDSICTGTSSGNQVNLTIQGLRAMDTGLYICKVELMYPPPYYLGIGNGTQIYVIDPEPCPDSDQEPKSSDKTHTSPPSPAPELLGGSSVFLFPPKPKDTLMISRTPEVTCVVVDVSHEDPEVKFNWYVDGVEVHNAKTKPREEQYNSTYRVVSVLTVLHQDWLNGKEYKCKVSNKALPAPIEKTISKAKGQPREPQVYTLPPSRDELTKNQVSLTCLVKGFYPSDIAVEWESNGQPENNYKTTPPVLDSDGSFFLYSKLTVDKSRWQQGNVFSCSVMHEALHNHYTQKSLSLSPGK
Test [18] concerns the target CTLA-4Fc mutant protein M7 (human (murine residues substituted)). In words: ELISA; binder 100 ng/ml on coated target.
For test [19], the target named is human IgG1-Fc control (human) [IgG part: P01857]. In words: ELISA; binder 100 ng/ml on coated target.

“And” between values parts separate entries of the source, which are not always exact repeats. Equal values may be shown once.

CTLA-4Fc mutant protein M9 (human (murine residues substituted)), sequence (chain, as listed by the source mutant): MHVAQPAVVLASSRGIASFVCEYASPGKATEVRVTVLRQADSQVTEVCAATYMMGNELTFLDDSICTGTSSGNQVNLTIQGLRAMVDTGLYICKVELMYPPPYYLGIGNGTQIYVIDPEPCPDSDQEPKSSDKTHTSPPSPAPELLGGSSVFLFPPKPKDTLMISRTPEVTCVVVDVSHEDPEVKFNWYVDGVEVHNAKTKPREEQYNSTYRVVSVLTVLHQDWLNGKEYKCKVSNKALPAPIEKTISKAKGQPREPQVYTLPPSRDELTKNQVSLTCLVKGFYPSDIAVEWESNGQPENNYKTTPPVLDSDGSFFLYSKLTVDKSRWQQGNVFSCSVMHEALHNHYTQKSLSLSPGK
CTLA-4Fc mutant protein M3 (human (murine residues substituted)), sequence (chain, as listed by the source mutant): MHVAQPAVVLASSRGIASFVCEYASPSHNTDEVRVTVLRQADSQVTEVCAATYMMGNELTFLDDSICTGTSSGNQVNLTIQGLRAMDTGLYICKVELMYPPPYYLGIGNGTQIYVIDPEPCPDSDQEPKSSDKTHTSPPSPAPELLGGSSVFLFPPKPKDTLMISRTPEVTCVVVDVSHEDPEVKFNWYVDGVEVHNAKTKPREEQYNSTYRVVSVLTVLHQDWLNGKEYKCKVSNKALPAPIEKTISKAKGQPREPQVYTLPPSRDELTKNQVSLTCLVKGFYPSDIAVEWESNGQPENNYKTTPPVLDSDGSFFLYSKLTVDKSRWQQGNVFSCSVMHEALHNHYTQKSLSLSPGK
CTLA-4Fc mutant protein M4 (human (murine residues substituted)), sequence (chain, as listed by the source mutant): as the sequence (chain, as listed by the source limits assumed) above, with Q39T, A40N, S42Q, Q43M counted along it
CTLA-4Fc mutant protein M6 (human (murine residues substituted)), sequence (chain, as listed by the source mutant): as the sequence (chain, as listed by the source limits assumed) above, with A50T counted along it

“chimeric L3D10 anti-human CTLA-4 antibody”: the OD450 was 1.23 OD450 and 1.24 OD450 in test [1]; 0.62 OD450 and 0.587 OD450 in test [2]; 0.18 OD450 and 0.171 OD450 in test [3]; 0.375 OD450 and 0.317 OD450 in test [4]; 0.714 OD450 and 0.738 OD450 in test [5]; 2.23 OD450 and 2.36 OD450 in [6]. In addition, the OD450 in test [7] was 3.02 OD450 and 3.16 OD450; in [8], 2.24 OD450 and 2.54 OD450; in test [9] it was 0.419 OD450 and 0.346 OD450; in test [10] it was 3.19 OD450 and 3.57 OD450; in [11] it was 0.303 OD450 and 0.314 OD450; in test [12] it was 0.26 OD450 and 0.272 OD450. For the same substance, the OD450 in test [13] was 3.03 OD450; in test [14], 1.31 OD450 and 1.37 OD450; in test [15], 3.25 OD450 and 3.32 OD450; in test [16] it was 0.752 OD450 and 0.746 OD450; in test [17], 3.32 OD450 and 3.46 OD450; in [18], 2.67 OD450 and 2.88 OD450. Moreover, in test [19], the OD450 is 0.315 OD450 and 0.326 OD450.
